The results in this text go back to patent publication US20230374114A1 (published 2023).

Where a chain is given by its changes, count along the chain named.

B1: Ab 19 scFv-Fc (scFv, V domains shown)
VH: EVQLVESGAEVKKPGESLKISCKGSGYSFTSYWIGWVRQMPGKGLEWMGIIYPGDSDTRYSPSFQGQVTISADKSISTAYLQWSSLKASDTAMYYCARRGDLDAFDIWGQGTMVTVSS
VL: QPGLTQPPAASGTPGQRVTVSCSGASANIGSNAVSWFKQFPETAPRLLISGNTHRPSGVPDRVSGSKSGTSASLTISGLQSDDEADYYCAAWDDSLNGYVFGSGTKVTVL
B2: Ab_17 (scFv, V domains shown)
VH: QVQLVQSGGGVVQPGRSLRLSCAASGFTFDDYAMHWVRQVPGKGLEWVSGIDWNSGVIGYADSVKGRFTISRDNVKNSLYLQMNSLRTEDSALYYCAKDIGPGGSGSYYAFDIWGQGTTVTVSS
VL: QSALTQPASVSGSPGQSITISCTGTSSDVGGSKYVSWYQQHPGKAPKVMIYDVTKRPSGVPDRFSGSKSGNTASLTISGLQAEDEADYYCAAWDDSLNGVVFGGGTKLTVL
B3: Ab 23 scFv-Fc (scFv, V domains shown)
VH: EVQLVQSGAEVKKPGSSVKVSCRSSGGTFSTYGITWVRQAPGQGLEWMGRIIPSLGIPNYAQKFQGRVTITADTSVSTAWMELSSLESDDTAIYYCARENIDLATNDFWGQGTLVTVSS
VL: QSALTQPPSASGSPGQSVTISCTGTSRDIGAYGYVSWYQQVPGKAPKLIIYEVRNRPSGVSSRFSGSKSGNTASLTISGLQAEDEADYYCSSYTSSSTLDVVFGGGTKLTVL
B4: Ab 21 (scFv, V domains shown)
VH: QVQLVQSGGGLVQPGGSLRLSCATSGFTFDDYAMHWVRQAPGKGLEWVSGISWNSGSIGYVDSVKGRFTISRDNRNNKVYLQMNNLRAEDTAVYYCARDWWGSIDHWGLGTLVTVSS
VL: QSALTQPRSVSGSPGQSVTISCTGTSSDVGGYDYVSWYQQHPGKAPKLIIYDVSKRPSGVPDRFSGSKSGNTASLTVSGLQAEDEADYYCSSYTSSSPVVFGGGTKLTVL
B5: Ab 25 scFv-Fc (scFv, V domains shown)
VH: QVQLVQSGGGLVQPGGSLRLSCAASGFTFSSYWMSWVRQAPGKGLEWVANIKQDGSEKYYVDSVKGRFTISRDNAKNSLYLQMNSLRAEDTAVYYCARGFYYYGAFDIWGQGTTVTVSS
VL: NFMLTQPHSVSESPGKTVTISCTGSSGSIASNYVQWYQQRPGSAPTTVIYEDNQRPSGVPDRFSGSIGSSSNSASLTISGLKTEDEADYYCQSYDSSNHWVFGGGTKLTVL
B6: Ab 28 scFv-Fc (scFv, V domains shown)
VH: QVTLKESGPGLVNPSETLSLTCTVSGASISNSFWSWIRQSPGKGLEWIGYTSYSGNSIYNPSLKSRLTMSIDTSKNQLSLNLRSLTAADTAVYYCARREWIKGHFDYWGQGTLVTVSS
VL: B5 VL with S26G, G68D, H99P, W100V
B7: Ab 20 (scFv, V domains shown)
VH: QVQLVQSGGGSVKPGGSLRLSCAASGYRLSDYYMHWVRQAPGKGLEWVANIKQDGSEKYYVDSVKGRFTISRDNAKNSLYLQMNSLRAEDTAVYYCARVRGWSRGYFDYWGQGTLVTVSS
VL: B5 VL with G68D, T77L
B8: Ab 26 scFv-Fc (scFv, V domains shown)
VH: QVQLVQSGGGLVQPGRSLRLSCAASGFTFDDYAMHWVRQVPGKGLEWVSGIDWNSGVIGYADSVKGRFTISRDNAKNSLYLQMNSLRAEDTALYYCAKDAYSYGFLGAFDIWGQGTMVTVSS
VL: LPVLTQPPSVSVAPGQTASITCGGDNIRTKGVHWYQQKPGQAPLLVIYYASDRPSGIPERFSGSSSGNTATLTISRVEAGDEADYYCQVWDSSSDLVVFGGGTTLTVL
B9: Ab 27 scFv-Fc (scFv, V domains shown)
VH: QVQLVQSGTEVKKPGASVKVSCKASGYSFTGSHLHWVRQAPGQGLEWMGWINPDSGVINYAQKFQGRVTLTRDTSISTAYMELSGLRSDDTAVYYCARDKAIGYVWALDYWGQGTLVTVSS
VL: QSALTQPPSVSGSPGQSVTISCTGTSSDVGTYNRVSWYQQPPGKAPKLMIYEVSNRPSGVSNRFSGSKSGNTASLTISGLQAEDEADYYCSSYTRTFTYVFGTGTKVTVL
B10: Ab 15 scFv-Fc (scFv, V domains shown)
VH: QVQLVQSGGGLVKPGRSLRLSCTASGFTFGDYAMSWFRQAPGKGLEWVGFIRSKAYGGTTGYAASVKGRFTISRDDSKSIAYLQMNSLKTEDTAVYYCTTADDDMDVWGKGTTVTVSS
VL: NFMLTQPHSVSESPGKTVTISCTRSSGTIASNYVQWYQQRPGSAPTTVIYEDNQRPSGVPDRFSGSIDRSSNSASLTISGLTPDDEADYYCQSYDTSNHYVFGTGTKVTVL
B11: Ab_13 (scFv, V domains shown)
VH: QVTLKESGPKLVKPTQTLTLTCTFSGFSLSTSGVGVGWIRQPPGKALEWLALIYWDDDKRYSPSLKSRLTIAKDTSKYQVVLTMTNMDPVDTATYYCARISGSGYFYPFDIWGQGTMVTVSA
VL: B5 VL with G24R, G68D, H99L
B12: Ab 14 scFv-Fc (scFv, V domains shown)
VH: QVQLQQSGPGLVKPSQTLSLTCAISGDSVSSNSAAWNWIRQSPARGLEWLGRTYYRSRWYNDYAISMKSRITINPDTSKNQFSLQLESVTPEDTAVYYCAREIRGFDYWGQGTLVTVSS
VL: QSVLTQPPSASGSPGQSVTISCTGTSSDVGAYNFVSWYQHHPGKAPKLIIYDFNKRPSGVPDRFSGSKSGNTASLTVSGLQADDEADYYCSSYAGSNNFDVVFGGGTKLTVL
B13: Ab_18 (scFv, V domains shown)
VH: EVQLVQSGGGVVQPGRSLRVSCAASGFSFSRYGMHWVRQAPGKGLEWVAFIRHDGSKKYYADSVEGRFTISRDNSRNTVSLEMNSLRGEDTAVYYCAKDGRLEAALDDWGQGTLVTVSS
VL: NFMLTQPHSMSGSAGKTVTVSCIRSSGSIANNFVQWYQQRPGSAPTTVIYEDNQRPSGVPDRFSGSIDSSSNSASLTISGLKTEDEADYYCQSYDSSNLVFGGGTRLTVL
B14: Ab_16 (scFv, V domains shown)
VH: QVQLVQSGGGVVQPGRSLRLSCAASGFTFSNYGMHWVRQAPGKGLEWVALIWERGSKKDYADSVKGRFTVSRDNSKNTLYLQMNSLRPEDTAVYFCAREGISMTGAEYFQHWGQGTLVTVSS
VL: QSVLTQPPSVSGSPGQRVTMSCTGSSSNIGAGYDVHWYQQVPGAAPRLLIYGTNNRPSGVPDRFSGSKSGTSASLTITGLQAEDEADYYCQSYDNSLTDPYVFGTGTKVTVL
B15: Ab 12 Fab (Fab, V domains shown)
VH: EVQLVESGPGVVSPSATLFLTCSVSGGSIRTHSWNWIRQPPGKPLEWIGFIHHSGATNKNPSLKSRVTISSDTSKNEFSLTLTSVTAADTAVYYCARGPGILSYWSRGTLVTVSS
VL: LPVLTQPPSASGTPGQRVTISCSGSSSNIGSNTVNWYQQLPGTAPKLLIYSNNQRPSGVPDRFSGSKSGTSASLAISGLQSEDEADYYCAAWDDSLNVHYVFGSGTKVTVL
B16: Ab 12 scFv-Fc (S1-R3-T1-H7) (scFv, V domains shown)
VH: B15 VH
VL: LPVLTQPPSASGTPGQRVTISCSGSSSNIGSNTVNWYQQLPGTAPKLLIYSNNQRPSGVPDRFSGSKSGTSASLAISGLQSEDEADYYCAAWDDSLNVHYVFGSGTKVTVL
B17: Ab 12 IgG (antibody, V domains shown)
VH: B15 VH
VL: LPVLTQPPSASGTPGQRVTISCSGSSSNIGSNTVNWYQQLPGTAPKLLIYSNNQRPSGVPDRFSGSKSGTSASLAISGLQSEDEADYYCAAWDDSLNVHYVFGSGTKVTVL

One assay has as its target biotinylated RBD (BLI sensors) (UniProt P0DTC2 319-537). The assay can be described thus: BLI. For orientation: Biolayer interferometry detects binding as a change in optical thickness at a sensor tip.
For B1, the dissociation constant Kd amounted to 0.533 nM.
The same measure, in the same setting: next, B2: 0.882 nM.
On the same count and under the same terms, next, B3: less than 0.001 nM.
Still for that read-out and setting: for B4 the value was 1.48 nM; for B5, 0.223 nM; for B6, 0.166 nM.
In turn, B7 showed a Kd of 1.9 nM.
The same measure, in the same setting: for B8 the value was 0.704 nM.
The same measure, in the same setting: for B9 the value was 0.906 nM.
For B10, the dissociation constant Kd is 6.61 nM.
On the same count and under the same terms, for B11 the value was 0.922 nM; for B12, 0.911 nM; for B13, 2.31 nM.
Same read-out and setting: for B14 the value was 0.959 nM.

The target of a further assay is SARS2 spike on transduced 293T cells (UniProt P0DTC2 14-1273). The assay can be described thus: FACS.
The molecule B15 had an EC50 of 0.582 nM.
Still for that read-out and setting: for B16 the value was 0.0237 nM.
Same read-out and setting: for B17 the value was 0.00588 nM.

A word on the Kd: it is the free concentration of one partner at which half of the binding sites on the other are occupied at equilibrium, for simple one-to-one binding. Low readings indicate a tighter complex, high ones a looser complex. As a reminder, the EC50 is the concentration at which the effect is half-maximal.
